From the supplement of paper PMC9112550, “Optimization of the antimicrobial peptide Bac7 by deep mutational scanning” (BMC Biology, 2022)

System: Escherichia coli TOP10
Test: shrunken log2 fold change of peptide-encoding DNA abundance (4.5 h post-induction vs induction); higher = less antimicrobial activity (less host growth inhibition)
Conditions: time post-induction: 4.5 h; library: site-saturation at positions 5, 18, 19, 20
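Further: peptides expressed intracellularly from a pBAD plasmid library in pooled LB shake-flask culture, induced with 0.3% L-arabinose, DNA abundance read by NGS, three biological replicates, DESeq2 with apeglm shrinkage.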

| Sequence | shrunken log2 fold change |
| --- | --- |
| RRIRNRPPRLPRPRPRPYRKPRP | -0.0658 |
| RRIRLRPPRLPRPRPRPSPIPRP | -0.0508 |
| RRIRSRPPRLPRPRPRPSREPRP | -0.173 |
| RRIRMRPPRLPRPRPRPDKLPRP | 0.282 |
| RRIRERPPRLPRPRPRPVCCPRP | -0.163 |
| RRIRIRPPRLPRPRPRPHVGPRP | -0.0138 |
| RRIRERPPRLPRPRPRPLMGPRP | 0.247 |
| RRIRYRPPRLPRPRPRPMVDPRP | -0.248 |
| RRIRQRPPRLPRPRPRPWLQPRP | 0.188 |
| RRIRHRPPRLPRPRPRPMCSPRP | -0.0225 |
| RRIRARPPRLPRPRPRPGLYPRP | -0.077 |
| RRIRWRPPRLPRPRPRPHNNPRP | -0.749 |
| RRIRPRPPRLPRPRPRPDCNPRP | -0.319 |
| RRIRFRPPRLPRPRPRPEHRPRP | 0.105 |
| RRIRHRPPRLPRPRPRPYTVPRP | 0.0229 |
| RRIRSRPPRLPRPRPRPWLLPRP | -0.337 |
| RRIRGRPPRLPRPRPRPLGDPRP | 0.624 |
| RRIRNRPPRLPRPRPRPTVWPRP | 0.563 |
| RRIRRRPPRLPRPRPRPTCIPRP | -0.123 |
| RRIRCRPPRLPRPRPRPNRWPRP | 0.0409 |

| Sequence | shrunken log2 fold change |
| --- | --- |
| RRIRSRPPRLPRPRPRPSKAPRP | -0.0678 |
| RRIRLRPPRLPRPRPRPETDPRP | 0.0033 |
| RRIRTRPPRLPRPRPRPLPYPRP | -0.0545 |
| RRIRHRPPRLPRPRPRPTIWPRP | -0.284 |
| RRIRVRPPRLPRPRPRPNWCPRP | -0.00931 |
| RRIRDRPPRLPRPRPRPSNWPRP | -0.136 |
| RRIRYRPPRLPRPRPRPAFRPRP | -0.287 |
| RRIRHRPPRLPRPRPRPRMMPRP | -0.0987 |
| RRIRNRPPRLPRPRPRPALEPRP | 0.025 |
| RRIRNRPPRLPRPRPRPFCTPRP | -0.351 |
| RRIRWRPPRLPRPRPRPYCGPRP | -0.187 |
| RRIRPRPPRLPRPRPRPCLGPRP | -0.198 |
| RRIRMRPPRLPRPRPRPTRDPRP | 0.314 |
| RRIRLRPPRLPRPRPRPPCLPRP | 0.0124 |
| RRIRVRPPRLPRPRPRPFMSPRP | 0.0334 |
| RRIRNRPPRLPRPRPRPHNHPRP | -0.739 |
| RRIRTRPPRLPRPRPRPVIIPRP | -0.213 |
| RRIRWRPPRLPRPRPRPCSDPRP | 0.273 |
| RRIRQRPPRLPRPRPRPIIEPRP | -0.504 |
| RRIRDRPPRLPRPRPRPKRYPRP | -0.236 |

| Sequence | shrunken log2 fold change |
| --- | --- |
| RRIRERPPRLPRPRPRPDKQPRP | 0.0325 |
| RRIRCRPPRLPRPRPRPFVQPRP | -0.86 |
| RRIRRRPPRLPRPRPRPVCTPRP | 0.575 |
| RRIRCRPPRLPRPRPRPCCRPRP | -0.106 |
| RRIRFRPPRLPRPRPRPTDMPRP | 0.0617 |
| RRIRVRPPRLPRPRPRPQTAPRP | 0.0297 |
| RRIRERPPRLPRPRPRPMDDPRP | -0.015 |
| RRIRQRPPRLPRPRPRPCKGPRP | 0.00408 |
| RRIRCRPPRLPRPRPRPDYYPRP | -0.231 |
| RRIRGRPPRLPRPRPRPVPFPRP | 0.289 |
| RRIRPRPPRLPRPRPRPWGKPRP | 0.248 |
| RRIRTRPPRLPRPRPRPGRRPRP | 0.244 |
| RRIRYRPPRLPRPRPRPQCQPRP | -0.00208 |
| RRIRKRPPRLPRPRPRPMLHPRP | 0.164 |
| RRIRMRPPRLPRPRPRPYFAPRP | -0.296 |
| RRIRERPPRLPRPRPRPNMKPRP | -0.6 |
| RRIRIRPPRLPRPRPRPVMGPRP | -0.718 |
| RRIRERPPRLPRPRPRPEVEPRP | -0.0864 |
| RRIRSRPPRLPRPRPRPVKNPRP | 0.291 |
| RRIRHRPPRLPRPRPRPHTRPRP | -0.174 |
